From paper PMC11625884 come the findings set out here.

This experiment concerns the target AMBRA1^WD40 (UniProt Q9C0C7). In words: co-IP; AMBRA1 antibody (Proteintech) coupled to Dynabeads, mixed with lysate of SHSY5Y cells overexpressing AMBRA1 constructs; washed; western blot for the protein of interest.
UniProt Q9C0C7, sequence (Q9C0C7 whole entry): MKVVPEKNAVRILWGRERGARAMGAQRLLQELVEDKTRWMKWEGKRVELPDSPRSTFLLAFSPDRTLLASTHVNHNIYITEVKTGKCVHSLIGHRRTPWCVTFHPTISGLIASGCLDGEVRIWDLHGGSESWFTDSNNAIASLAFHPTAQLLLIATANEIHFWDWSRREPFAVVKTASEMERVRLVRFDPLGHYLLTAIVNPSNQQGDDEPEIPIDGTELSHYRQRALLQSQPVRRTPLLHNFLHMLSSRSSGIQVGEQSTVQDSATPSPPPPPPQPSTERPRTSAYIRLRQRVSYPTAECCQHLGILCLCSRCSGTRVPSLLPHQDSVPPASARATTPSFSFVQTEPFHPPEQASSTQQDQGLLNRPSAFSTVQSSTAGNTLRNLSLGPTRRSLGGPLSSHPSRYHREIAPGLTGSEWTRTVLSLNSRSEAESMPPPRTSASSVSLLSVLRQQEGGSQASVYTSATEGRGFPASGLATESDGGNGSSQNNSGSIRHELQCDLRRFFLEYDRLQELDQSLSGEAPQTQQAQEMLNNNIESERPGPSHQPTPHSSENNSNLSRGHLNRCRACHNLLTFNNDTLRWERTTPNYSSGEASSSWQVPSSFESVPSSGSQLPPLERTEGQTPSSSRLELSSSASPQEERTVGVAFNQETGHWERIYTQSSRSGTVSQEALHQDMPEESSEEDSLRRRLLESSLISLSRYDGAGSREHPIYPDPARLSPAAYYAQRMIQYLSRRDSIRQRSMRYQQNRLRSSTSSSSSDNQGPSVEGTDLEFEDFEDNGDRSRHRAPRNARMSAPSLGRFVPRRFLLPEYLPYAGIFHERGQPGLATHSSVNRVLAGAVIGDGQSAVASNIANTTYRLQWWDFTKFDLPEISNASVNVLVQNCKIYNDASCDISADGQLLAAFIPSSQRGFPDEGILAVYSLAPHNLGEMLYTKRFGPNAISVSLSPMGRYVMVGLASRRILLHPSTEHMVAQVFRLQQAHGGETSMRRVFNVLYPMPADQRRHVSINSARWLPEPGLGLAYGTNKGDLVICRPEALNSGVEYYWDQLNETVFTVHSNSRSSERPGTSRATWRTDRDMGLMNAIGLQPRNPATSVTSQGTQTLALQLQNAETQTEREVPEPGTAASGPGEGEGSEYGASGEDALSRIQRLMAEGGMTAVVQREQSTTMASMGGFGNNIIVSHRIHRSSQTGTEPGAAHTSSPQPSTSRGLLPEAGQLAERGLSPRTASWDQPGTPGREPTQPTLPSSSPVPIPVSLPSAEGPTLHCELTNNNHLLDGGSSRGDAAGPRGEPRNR

For “DDB1 (from UniProt Q16531 1-1140) (natural protein)”, the fold change of the AMBRA1/DDB1 interaction against AMBRA1^WT came out at 0.5 fold.
